In assay [1] the target is T1, human serum albumin (AffiGel 10-bound, HSA Column) (human, UniProt P02768 25-609).
T1 construct: also called HSA control column
Kind of assay: Western blot of the eluate of the HSA control column with specific primary antibodies.

The target of assay [2] is Death-associated protein 3 (DAP3) (human, UniProt P51398 22-398). Kind of assay: co-immunoprecipitation with affi-gel-bound anti-Flag antibody from transfected HeLa cells; Western blot with anti-DAP3. Here is the method: Briefly, equal numbers of HeLa cells were transfected with a control vector or Flag-epitope tagged N-terminus domain of BCL10 (aa. 1-97), C-terminus domain (aa. 104-233) or the full length BCL10. After 48 h of incubation, equal extracts (200 μg) from the transfected cells were incubated with a 50 μL of affi-gel-bound anti-Flag antibody. […] The expression of the Flag-BCL10 protein variants in the extracts (IB) was also assessed. β-actin was used as a loading control to ensure equal protein loading.
For orientation: Immunoblotting shows a protein as a band on a membrane.

The target in assay [3] is T1, human serum albumin (AffiGel 10-bound, …). Kind of assay: AffiGel-HSA control column loaded with the HeLa S100 >800 kDa fraction; tandem mass spectrometry of the eluate.

B1: Insulin-like growth factor II (IGF-II) messenger RNA (mRNA)-binding protein-3 (IMP3) (other, UniProt O00425 1-579, looked up)
chain: MNKLYIGNLSENAAPSDLESIFKDAKIPVSGPFLVKTGYAFVDCPDESWALKAIEALSGKIELHGKPIEVEHSVPKRQRIRKLQIRNIPPHLQWEVLDSLLVQYGVVESCEQVNTDSETAVVNVTYSSKDQARQALDKLNGFQLENFTLKVAYIPDEMAAQQNPLQQPRGRRGLGQRGSSRQGSPGSVSKQKPCDLPLRLLVPTQFVGAIIGKEGATIRNITKQTQSKIDVHRKENAGAAEKSITILSTPEGTSAACKSILEIMHKEAQDIKFTEEIPLKILAHNNFVGRLIGKEGRNLKKIEQDTDTKITISPLQELTLYNPERTITVKGNVETCAKAEEEIMKKIRESYENDIASMNLQAHLIPGLNLNALGLFPPTSGMPPPTSGPPSAMTPPYPQFEQSETETVHLFIPALSVGAIIGKQGQHIKQLSRFAGASIKIAPAEAPDAKVRMVIITGPPEAQFKAQGRIYGKIKEENFVSPKEEVKLEAHIRVPSFAAGRVIGKGGKTVNELQNLSSAEVVVPRDQTPDENDQVVVKITGHFYACQVAQRKIQEILTQVKQHQQQKALQSGPPQSRRK
notes: Endogenous protein of HeLa cells; It describes the protein as IGF2BP3 with a mass of 63705 Da and also lists NP_006538; also called IMAP3; IGF2BP3
For B1, the binding result in assay [1] was “no binding”.

B2: Flag-epitope tagged N-terminus domain of BCL10 (aa. 1-97) (other, not shown: small tags and cut ends)
chain: MEPTAPSLTEEDLTEVKKDALENLRVYLCEKIIAERHFDHLRAKKILSREDTEEISCRTSSRKRAGKLLDYLQENPKGLDTLVESIRREKTQNFLIQ
notes: Expressed in transfected HeLa cells; also called amino terminal CARD domain (aa 1-97); CARD (N-terminus) domain of BCL10
Consider B2, for which the binding result in assay [2] is recorded as “no binding”.

B3: Phosphatase of Regenerative Liver (PRL1/protein tyrosine phosphatase PTP4A1) (enzyme)
chain: MARMNRPAPVEVTYKNMRFLITHNPTNATLNKFIEELKKYGVTTIVRVCEATYDTTLVEKEGIHVLDWPFDDGAPPSNQIVDDWLSLVKIKFREEPGCCIAVHCVAGLGRAPVLVALALIEGGMKYEDAVQFIRQKRRGAFNSKQLLYLEKYRPKMRLRFKDSNGHRNNC
notes: Endogenous protein of HeLa cells; also called PRL1/PTP4A1
As to B3, the binding result in assay [3] is “no binding”.
